The values below come from patent KR20120084755A (dated 2012).

In assay [1] the target is T1, RSV 긴 균주(Long strain)로부터의 HIS 태그 포함 재조합 F 단백질 (Respiratory Syncytial Virus (RSV), Long …, UniProt P12568 26-524).
T1 construct: not shown: poly-HIS tag
In words: direct ELISA, purified HIS-tagged F on Ni-NTA HisSorp plates (Fig. 3b right).

The target of another assay is RSV A2 바이러스의 F 단백질 (Respiratory Syncytial Virus (RSV), …, UniProt P03420 26-574). In words: cell-based or functional assay.
Chain of RSV A2 바이러스의 F 단백질 (P03420 26-574): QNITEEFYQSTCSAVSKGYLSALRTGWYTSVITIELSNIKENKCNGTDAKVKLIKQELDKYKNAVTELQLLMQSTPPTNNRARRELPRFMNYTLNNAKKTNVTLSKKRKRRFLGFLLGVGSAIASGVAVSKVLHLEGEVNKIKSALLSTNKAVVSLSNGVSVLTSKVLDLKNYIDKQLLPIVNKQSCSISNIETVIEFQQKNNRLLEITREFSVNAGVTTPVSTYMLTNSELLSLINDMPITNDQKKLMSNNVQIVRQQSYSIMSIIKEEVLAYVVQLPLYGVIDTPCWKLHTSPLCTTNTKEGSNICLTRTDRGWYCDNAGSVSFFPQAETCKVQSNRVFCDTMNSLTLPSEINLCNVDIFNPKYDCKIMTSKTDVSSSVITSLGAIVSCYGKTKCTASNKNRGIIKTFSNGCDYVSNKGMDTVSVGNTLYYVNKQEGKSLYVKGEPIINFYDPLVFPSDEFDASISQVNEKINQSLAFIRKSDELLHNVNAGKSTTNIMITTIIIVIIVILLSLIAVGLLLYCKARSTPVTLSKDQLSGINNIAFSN

T1 sequence (P12568 26-524): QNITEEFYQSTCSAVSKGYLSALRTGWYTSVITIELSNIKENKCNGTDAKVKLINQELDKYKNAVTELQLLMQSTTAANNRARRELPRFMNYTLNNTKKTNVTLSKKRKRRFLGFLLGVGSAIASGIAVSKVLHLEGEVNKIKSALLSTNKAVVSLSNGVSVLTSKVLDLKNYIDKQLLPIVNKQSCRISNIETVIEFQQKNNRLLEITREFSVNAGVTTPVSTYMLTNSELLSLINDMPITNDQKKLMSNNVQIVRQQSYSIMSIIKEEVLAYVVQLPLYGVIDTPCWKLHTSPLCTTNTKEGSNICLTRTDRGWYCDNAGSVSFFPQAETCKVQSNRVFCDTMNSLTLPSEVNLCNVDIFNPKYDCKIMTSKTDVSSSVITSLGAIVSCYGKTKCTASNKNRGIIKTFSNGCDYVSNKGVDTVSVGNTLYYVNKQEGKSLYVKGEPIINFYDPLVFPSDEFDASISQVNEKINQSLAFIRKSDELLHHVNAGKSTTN

B1: AM22 (antibody, V domains shown)
VH: QVQLVQSGAEVKKPGATVKVSCKISGHTLIKLSIHWVRQAPGKGLEWMGGYEGEVDEIFYAQKFQHRLTVIADTATDTVYMELGRLTSDDTAVYFCGTLGVTVTEAGLGIDDYWGQGTLVTVSS
VL: EIVLTQSPGTLSLSPGERATLSCRASQIVSRNHLAWYQQKPGQAPRLLIFGASSRATGIPVRFSGSGSGTDFTLTINGLAPEDFAVYYCLSSDSSIFTFGPGTKVDFK
notes: also called 재조합 AM22 mAb; AM22 항체
For B1, in assay [1], the binding result is “no binding”. Further, the “IC50, RSV A2 neutralisation on HEp2 cells (standard TCID50 culture assay)” value in the assay with RSV A2 바이러스의 F 단백질 stood at 1.15 ng/㎖.
